Experimental findings from patent publication US20130243802A1 (ATLANTIC RESEARCH CENTER INSTITUTE, published 2013) are described below.

Assay [1] concerns the target T1, Recombinant Mycobacterium tuberculosis HSP70 (Aalto, Eire) (Mycobacterium tuberculosis, UniProt P9WMJ9 1-625).
T1 construct: also called mtHSP70; Mycobacteria HSP70
Kind of assay: CHIEF gel.

The target in a further assay is E. coli orthologue, dnaK (E. coli, UniProt P0A6Y8 2-638). Nature of the assay: CHIEF (counter HSP isoelectric focusing) gel.
Sequence of E. coli orthologue, dnaK (P0A6Y8 2-638 limits assumed): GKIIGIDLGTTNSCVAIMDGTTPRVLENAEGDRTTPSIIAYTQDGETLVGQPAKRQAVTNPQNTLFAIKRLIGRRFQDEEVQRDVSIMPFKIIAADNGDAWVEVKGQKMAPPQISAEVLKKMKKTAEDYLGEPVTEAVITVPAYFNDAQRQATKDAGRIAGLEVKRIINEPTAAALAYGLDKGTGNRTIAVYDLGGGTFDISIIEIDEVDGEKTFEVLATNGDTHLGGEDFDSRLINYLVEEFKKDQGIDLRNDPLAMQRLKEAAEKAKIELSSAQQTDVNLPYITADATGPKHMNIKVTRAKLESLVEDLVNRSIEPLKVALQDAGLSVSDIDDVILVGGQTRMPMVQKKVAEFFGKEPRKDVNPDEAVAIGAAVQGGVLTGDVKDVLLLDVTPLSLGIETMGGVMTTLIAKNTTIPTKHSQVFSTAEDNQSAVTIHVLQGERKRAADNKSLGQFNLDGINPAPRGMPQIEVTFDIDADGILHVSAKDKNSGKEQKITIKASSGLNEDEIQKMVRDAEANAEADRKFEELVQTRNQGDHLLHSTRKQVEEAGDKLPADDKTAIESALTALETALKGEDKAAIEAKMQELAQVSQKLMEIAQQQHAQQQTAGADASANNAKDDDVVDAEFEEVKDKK

T1 sequence (P9WMJ9 whole entry): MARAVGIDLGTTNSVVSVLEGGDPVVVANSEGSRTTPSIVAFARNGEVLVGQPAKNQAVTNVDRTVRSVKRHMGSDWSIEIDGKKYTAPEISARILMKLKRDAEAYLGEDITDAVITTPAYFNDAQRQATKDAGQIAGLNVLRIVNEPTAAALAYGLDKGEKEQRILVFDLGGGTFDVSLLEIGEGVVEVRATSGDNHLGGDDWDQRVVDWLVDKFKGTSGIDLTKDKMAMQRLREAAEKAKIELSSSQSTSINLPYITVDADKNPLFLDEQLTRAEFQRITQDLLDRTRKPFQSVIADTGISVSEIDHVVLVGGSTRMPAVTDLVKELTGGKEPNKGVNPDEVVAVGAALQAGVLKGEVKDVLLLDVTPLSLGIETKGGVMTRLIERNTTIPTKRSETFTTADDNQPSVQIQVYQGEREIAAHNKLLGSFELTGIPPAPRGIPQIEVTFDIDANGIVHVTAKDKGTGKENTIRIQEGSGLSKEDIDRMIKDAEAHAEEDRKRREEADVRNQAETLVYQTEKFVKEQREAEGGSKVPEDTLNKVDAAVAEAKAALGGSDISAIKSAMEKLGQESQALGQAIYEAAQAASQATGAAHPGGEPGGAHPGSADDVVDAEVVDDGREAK

B1: bMBP 100-117 peptide (peptide)
peptide: PSQGKGRGLSLSRFSWGA
notes: Synthetic peptide (New England Peptide)
Turning to B1, the binding result in assay [1] is “binds”.

B2: bovine myelin basic protein (other, UniProt P02687 1-169, looked up)
chain: AAQKRPSQRSKYLASASTMDHARHGFLPRHRDTGILDSLGRFFGSDRGAPKRGSGKDGHHAARTTHYGSLPQKAQGHRPQDENPVVHFFKNIVTPRTPPPSQGKGRGLSLSRFSWGAEGQKPGFGYGGRASDYKSAHKGLKGHDAQGTLSKIFKLGGRDSRSGSPMARR
notes: also called bMBP; MBP
On to B2, for which the binding result in assay [1] is reported as “binds”; with E. coli orthologue, dnaK, “no binding”.

B3: MBP 62-78 peptide (peptide)
peptide: ARTTHYGSLPQKAQGHR
notes: range 62-78; Synthetic candidate peptide; also called MBP peptide 1 (62-78)
B3: in assay [1], the binding result is reported as “no binding”.
